Patent publication US11371056B2, “HPPD variants and methods of use” (BASF Agricultural Solutions Seed US LLC, priority 2017, dated 2022)

Test system: Pseudomonas fluorescens HPPD polypeptide (wild-type and mutants)
Test: Coupled HPPD activity assay: turnover and residual turnover in crude HPPD polypeptide extracts with and without Cmpd. 1
Type: biochemical
Details: for Residual turnover [%]: 100 μM Cmpd. 1, normalised to turnover without inhibitor; for Turnover: absence of Cmpd. 1; for Turnover / Residual turnover: changes in absorbance (OD) at 320 nm in the coupled assay, 30 min; for Residual turnover: presence of 100 μM Cmpd. 1

| Molecule | Residual turnover [%] | Turnover | Residual turnover |
| --- | --- | --- | --- |
| SEQ ID NO:17 (protein, mutant HPPD polypeptide) MADLYENPMGLMGFEFIEFASPTPGTLEPIFEIMGFTKVATHRSKNVHLYRQGEINLILNNEPNSIASYFAAEHGPSVCGMAFRVKDSQKAYNRALELGAQPIHIDTGPMELNLPAIKGIGGAPLYLIDRFGEGSSIYDIDFVYLEGVERNPVGAGLKVIDHLTHNVYRGRMVYWANFYEKLFNFREARYFDIKGEYTGLTSKAMSAPDGMIRIPLNEESSKGAGQIEEFLMQFNGEGIQHVAFLTDDLVKTWDALKKIGMRFMTAPGDEYYEMLEGRLPDHGEPVDQLQARGILLDGSSVEGDKRLLLQIFSETLMGPVFFEFIQRKGDDGFGPDSFKVLFESMERDQVRRGVLTAD | 41 | 0.184 | 0.075 |
| SEQ ID NO:21 (protein, mutant HPPD polypeptide) MADLYENPMGLMGFEFIEFASPTPGTLEPIFEIMGFTKVATHRSKNVHLYRQGEINLILNNEPNSIASYFAAEHGPSVCGMAFRVKDSQKAYNRALELGAQPIHIDTGPMELNLPAIKGIGGAPLYLIDRFGEGSSIYDIDFVYLEGVERNPVGAGLKVIDHLTHNVYRGRMVYWANFYEKLFNFREARYFDIKGEYTGLTSKAMSAPDGMIRIPLNEESSKGAGQIEEFLMQFNGEGIQHVAFLTDDLVKTWDALKKIGMRFMTAPGDEYYEMLEGRLPDHGEPVDQLQARGILLDGSSVEGDKRLLLQIFSETLMGPVFFEFIQRKGDDGFGPDSFKVLFEQMERDQVRRGVLTAD | 38 | 0.214 | 0.082 |
| SEQ ID NO:30 (protein, mutant HPPD polypeptide) MADLYENPMGLMGFEFIEFASPTPGTLEPIFEIMGFTKVATHRSKNVHLYRQGEINLILNNEPNSIASYFAAEHGPSVCGMAFRVKDSQKAYNRALELGAQPIHIDTGPMELNLPAIKGIGGAPLYLIDRFGEGSSIYDIDFVYLEGVERNPVGAGLKVIDHLTHNVYRGRMVYWANFYEKLFNFREARYFDIKGEYTGLTSKAMSAPDGMIRIPLNEESSKGAGQIEEFLMQFNGEGIQHVAFLTDDLVKTWDALKKIGMRFMTAPGDEYYEMLEGRLPDHGEPVDQLQARGILLDGSSVEGDKRLLLQIFSEQLMGPVFFEFIQRKGDDGFGPHSFKVLFEQIERDQVRRGVLTAD | 61 | 0.294 | 0.18 |
| SEQ ID NO:20 (protein, mutant HPPD polypeptide) MADLYENPMGLMGFEFIEFASPTPGTLEPIFEIMGFTKVATHRSKNVHLYRQGEINLILNNEPNSIASYFAAEHGPSVCGMAFRVKDSQKAYNRALELGAQPIHIDTGPMELNLPAIKGIGGAPLYLIDRFGEGSSIYDIDFVYLEGVERNPVGAGLKVIDHLTHNVYRGRMVYWANFYEKLFNFREARYFDIKGEYTGLTSKAMSAPDGMIRIPLNEESSKGAGQIEEFLMQFNGEGIQHVAFLTDDLVKTWDALKKIGMRFMTAPGDEYYEMLEGRLPDHGEPVDQLQARGILLDGSSVEGDKRLLLQIFSERLMGPVFFEFIQRKGDDGFGPDSFKVLFEQMERDQVRRGVLTAD | 49 | 0.166 | 0.082 |
| SEQ ID NO:29 (protein, mutant HPPD polypeptide) MADLYENPMGLMGFEFIEFASPTPGTLEPIFEIMGFTKVATHRSKNVHLYRQGEINLILNNEPNSIASYFAAEHGPSVCGMAFRVKDSQKAYNRALELGAQPIHIDTGPMELNLPAIKGIGGAPLYLIDRFGEGSSIYDIDFVYLEGVERNPVGAGLKVIDHLTHNVYRGRMVYWANFYEKLFNFREARYFDIKGEYTGLTSKAMSAPDGMIRIPLNEESSKGAGQIEEFLMQFNGEGIQHVAFLTDDLVKTWDALKKIGMRFMTAPGDEYYEMLEGRLPDHGEPVDQLQARGILLDGSSVEGDKRLLLQIFSEKLMGPVFFEFIQRKGDDGFGPHSFKVLFEQIERDQVRRGVLTAD | 61 | 0.286 | 0.174 |
| SEQ ID NO:31 (protein, mutant HPPD polypeptide) MADLYENPMGLMGFEFIEFASPTPGTLEPIFEIMGFTKVATHRSKNVHLYRQGEINLILNNEPNSIASYFAAEHGPSVCGMAFRVKDSQKAYNRALELGAQPIHIDTGPMELNLPAIKGIGGAPLYLIDRFGEGSSIYDIDFVYLEGVERNPVGAGLKVIDHLTHNVYRGRMVYWANFYEKLFNFREARYFDIKGEYTGLTSKAMSAPDGMIRIPLNEESSKGAGQIEEFLMQFNGEGIQHVAFLTDDLVKTWDALKKIGMRFMTAPGDEYYEMLEGRLPDHGEPVDQLQARGILLDGSSVEGDKRLLLQIFSEKLMGPVFFEFIQRKGDDGFGPHSFKVLFESMERDQVRRGVLTAD | 48 | 0.268 | 0.128 |
| SEQ ID NO:25 (protein, mutant HPPD polypeptide) MADLYENPMGLMGFEFIEFASPTPGTLEPIFEIMGFTKVATHRSKNVHLYRQGEINLILNNEPNSIASYFAAEHGPSVCGMAFRVKDSQKAYNRALELGAQPIHIDTGPMELNLPAIKGIGGAPLYLIDRFGEGSSIYDIDFVYLEGVERNPVGAGLKVIDHLTHNVYRGRMVYWANFYEKLFNFREARYFDIKGEYTGLTSKAMSAPDGMIRIPLNEESSKGAGQIEEFLMQFNGEGIQHVAFLTDDLVKTWDALKKIGMRFMTAPGDEYYEMLEGRLPDHGEPVDQLQARGILLDGSSVEGDKRLLLQIFSETLMGPVFFEFIQRKGDDGFGPHSFKVLFESIERDQVRRGVLTAD | 45 | 0.25 | 0.112 |
| SEQ ID NO:27 (protein, mutant HPPD polypeptide) MADLYENPMGLMGFEFIEFASPTPGTLEPIFEIMGFTKVATHRSKNVHLYRQGEINLILNNEPNSIASYFAAEHGPSVCGMAFRVKDSQKAYNRALELGAQPIHIDTGPMELNLPAIKGIGGAPLYLIDRFGEGSSIYDIDFVYLEGVERNPVGAGLKVIDHLTHNVYRGRMVYWANFYEKLFNFREARYFDIKGEYTGLTSKAMSAPDGMIRIPLNEESSKGAGQIEEFLMQFNGEGIQHVAFLTDDLVKTWDALKKIGMRFLTAPGDEYYEMLEGRLPDHGEPVDQLQARGILLDGSSVEGDKRLLLQIFSERLMGPVFFEFIQRKGDDGFGPHSFKVLFESIERDQVRRGVLTAD | 58 | 0.262 | 0.153 |
| SEQ ID NO:19 (protein, mutant HPPD polypeptide) MADLYENPMGLMGFEFIEFASPTPGTLEPIFEIMGFTKVATHRSKNVHLYRQGEINLILNNEPNSIASYFAAEHGPSVCGMAFRVKDSQKAYNRALELGAQPIHIDTGPMELNLPAIKGIGGAPLYLIDRFGEGSSIYDIDFVYLEGVERNPVGAGLKVIDHLTHNVYRGRMVYWANFYEKLFNFREARYFDIKGEYTGLTSKAMSAPDGMIRIPLNEESSKGAGQIEEFLMQFNGEGIQHVAFLTDDLVKTWDALKKIGMRFMTAPGDEYYEMLEGRLPDHGEPVDQLQARGILLDGSSVEGDKRLLLQIFSEQLMGPVFFEFIQRKGDDGFGPDSFKVLFEQMERDQVRRGVLTAD | 40 | 0.218 | 0.087 |
| SEQ ID NO:24 (protein, mutant HPPD polypeptide) MADLYENPMGLMGFEFIEFASPTPGTLEPIFEIMGFTKVATHRSKNVHLYRQGEINLILNNEPNSIASYFAAEHGPSVCGMAFRVKDSQKAYNRALELGAQPIHIDTGPMELNLPAIKGIGGAPLYLIDRFGEGSSIYDIDFVYLEGVERNPVGAGLKVIDHLTHNVYRGRMVYWANFYEKLFNFREARYFDIKGEYTGLTSKAMSAPDGMIRIPLNEESSKGAGQIEEFLMQFNGEGIQHVAFLTDDLVKTWDALKKIGMRFMTAPGDEYYEMLEGRLPDHGEPVDQLQARGILLDGSSVEGDKRLLLQIFSERLMGPVFFEFIQRKGDDGFGPHSFKVLFESIERDQVRRGVLTAD | 54 | 0.271 | 0.147 |
| SEQ ID NO:18 (protein, mutant HPPD polypeptide) MADLYENPMGLMGFEFIEFASPTPGTLEPIFEIMGFTKVATHRSKNVHLYRQGEINLILNNEPNSIASYFAAEHGPSVCGMAFRVKDSQKAYNRALELGAQPIHIDTGPMELNLPAIKGIGGAPLYLIDRFGEGSSIYDIDFVYLEGVERNPVGAGLKVIDHLTHNVYRGRMVYWANFYEKLFNFREARYFDIKGEYTGLTSKAMSAPDGMIRIPLNEESSKGAGQIEEFLMQFNGEGIQHVAFLTDDLVKTWDALKKIGMRFMTAPGDEYYEMLEGRLPDHGEPVDQLQARGILLDGSSVEGDKRLLLQIFSEKLMGPVFFEFIQRKGDDGFGPDSFKVLFEQMERDQVRRGVLTAD | 41 | 0.221 | 0.091 |
| SEQ ID NO:22 (protein, mutant HPPD polypeptide) MADLYENPMGLMGFEFIEFASPTPGTLEPIFEIMGFTKVATHRSKNVHLYRQGEINLILNNEPNSIASYFAAEHGPSVCGMAFRVKDSQKAYNRALELGAQPIHIDTGPMELNLPAIKGIGGAPLYLIDRFGEGSSIYDIDFVYLEGVERNPVGAGLKVIDHLTHNVYRGRMVYWANFYEKLFNFREARYFDIKGEYTGLTSKAMSAPDGMIRIPLNEESSKGAGQIEEFLMQFNGEGIQHVAFLTDDLVKTWDALKKIGMRFMTAPGDEYYEMLEGRLPDHGEPVDQLQARGILLDGSSVEGDKRLLLQIFSEKLMGPVFFEFIQRKGDDGFGPHSFKVLFESIERDQVRRGVLTAD | 42 | 0.259 | – |
| SEQ ID NO:23 (protein, mutant HPPD polypeptide) MADLYENPMGLMGFEFIEFASPTPGTLEPIFEIMGFTKVATHRSKNVHLYRQGEINLILNNEPNSIASYFAAEHGPSVCGMAFRVKDSQKAYNRALELGAQPIHIDTGPMELNLPAIKGIGGAPLYLIDRFGEGSSIYDIDFVYLEGVERNPVGAGLKVIDHLTHNVYRGRMVYWANFYEKLFNFREARYFDIKGEYTGLTSKAMSAPDGMIRIPLNEESSKGAGQIEEFLMQFNGEGIQHVAFLTDDLVKTWDALKKIGMRFMTAPGDEYYEMLEGRLPDHGEPVDQLQARGILLDGSSVEGDKRLLLQIFSEQLMGPVFFEFIQRKGDDGFGPHSFKVLFESIERDQVRRGVLTAD | 48 | 0.272 | 0.131 |
